From the supplement of paper PMC9170038

System: K4 kissing-loop RNA reporter
Test: apparent KD of K4 kissing-loop reporter; higher = weaker reporter binding
Settings: Eterna round: R107
Experimental: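 RNA-MaP round R107: designed RNA switches with theophylline, tryptophan, arginine or FMN aptamers are transcribed on-chip within common flanks. They are titrated with a labelled K4 kissing-loop RNA reporter in RNA-MaP buffer (100 mM Tris pH 7.5, 80 mM KCl, 4 mM MgCl2), without ligand or with the indicated ligand. Median apparent KD per design.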

[1] = input ligand: theophylline 20 uM
[2] = input ligand: tryptophan 2.4 mM
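Also: bound reporter read as fluorescence of individual clusters on recovered sequencing chips by microscopy, with normalized cluster intensities fitted with a binding model.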

Row | Sequence | apparent KD of K4 kissing-loop reporter (input ligand: FMN 200 uM) [nM] | apparent KD of K4 kissing-loop reporter (input ligand: arginine 13.2 mM) [nM] | apparent KD of K4 kissing-loop reporter (input ligand: none) [nM] | apparent KD of K4 kissing-loop reporter [1] [nM] | apparent KD of K4 kissing-loop reporter [2] [nM]
1 | GCUAUGGUAGGAAGGAGCGCGGACGGUAUUUGUCGAGUGAUGUUCGAUUCUUUAAUUUGAACGCAGGUAGGUCGCCUACUAUAGC [Arginine B K4 30] | 214 | 183 | 226 | 258 | 221
2 | UCUAAGGUCGAACCGGUAUGAUCACCGGAUACCAGAGGCGAAAGCCUCCCUUGGCAGCCGAGUGUAGUGAUGUUACACGGGUUCU | 166 | 147 | 175 | 310 | 166
3 | AAUAAUAGUUGAGCAGGCGUGGUCUGAGAUACCAGUGAUUUCGAUCACCCUUGGCAGCUCAGCAUGAGUGAUGUUCAUGCUAUUC [Theo A Ex t10] | 147 | 114 | 134 | 145 | 131
4 | AAGGGCUAGGCGGCCGCCACUGGUCGUGUACACAUACAGACCAGUGAUGUUGGUAUUGUAUGCGACAGGACCGGGCCUAGCCCAA [Exclusion - Tryptophan B (Freestyle 29)] | 267 | 230 | 263 | 247 | 445
5 | AAUCCUAACGGAGUGAUGUUCCGUAGCGAUACCAGCCAUUGCGAUGGCCCUUGGCAGCGCUAUAAGCAUUGCUAGUAAGGGCCAA [Theo A Ex t7] | 167 | 148 | 168 | 163 | 159
6 | CCUAUCUCGUACGAUACCAGACUAUGAUCUUUGAUCAAUGCCAUCACCGAGUGAUGUUCGGUCCCUUGGCAGCGUAUGAGAUGGG [#12 K4 Theophylline B Exclusion] | 179 | 143 | 170 | 202 | 155
7 | UAUGAAGGUGGAGGAUAUUGAUUGAAUCUUGGUCAGGAGUGAUGUUCCGGGAAGCCUUGGAUUCAUCGAGAAGGCCAAGGAUAGU [Extra 3] | 123 | 344 | 344 | 330 | 327
8 | AUUGCACCUGCGGCCGCCACUCACUCCGGGCUGCUGGCCAGUGAUGUUGGUACGGCUGCCGGUUAGAGGACCGGGCAGGAGCUAA [Esage] | 106 | 113 | 107 | 106 | 91.3
9 | AUAUGCUUAGCGGCCGCCACUCCAAUUGGCCGAAAGGCCUGAUACCGAGUGAUGUUCGGUUGGAGGAGGACCGGGCUAGGCGUAU [#2 Exclusion - Tryptophan B Attempt #1 (HarryS)] | 168 | 139 | 169 | 149 | 141
10 | AGCGUCUGAAGAGGAUAUGACCAGUGAUGUUGGUUACUACCUCAAAUUAGUGUCGCGCCAAAAUCGUCAGAAGGCUUCGGCGCGC [Ussoes] | 135 | 92 | 98.6 | 96.7 | 92.9
11 | CGCAGUGAUGUUGCGAAUAUAAUAACGGAAGGAGCGCGUGAAAACGCAGGUAGGUCGCCGUUUGGUAUGAUGGAAACAUCGUACC [Arginine A K4 11] | 135 | 138 | 132 | 106 | 123
12 | UGACUGGACUGAAGGAGCGCGAAAACUCCUAGUGAUGUUAGGAAAACGAGACAAAGUCUCGCGCAGGUAGGUCGCAGUCUAGUCU [ArgBS 20 #SwitchBubble #StaticStem] | 131 | 102 | 121 | 129 | 113
13 | CGCAGUGAUGUUGCGAAUAUAAUUACGGAAGGAGCGCGUGAAAACGCAGGUAGGUCGCCGUUUGGUAUGAUGGAAACAUCGUACC [Arginine A K4 10] | 140 | 125 | 147 | 115 | 117
14 | GGAUCCACCAGUGAUGUUGGAGAAAACUCCGAGGAUAUGACGAAAGUCAGAAGGUGGUAGACUGGACAAAGUCCGGUCGGAUCCA [FmnA 24 #SwitchBubble #K4Early] | 790 | 83.3 | 288 | 162 | 101
15 | UGGAUAUAGUGAUGUUAUAUAGAGAUGGAUACCAGCUGAGAGAAUAGCCCUUGGCAGCCGAAAGAAGUAUCAUUAGAGAAGAAUG [ExTheophyl.Aj] | 248 | 188 | 231 | 271 | 172
16 | ACAGAUUGAUUGAUUCACUUUGUAGCUGCGAAGGAUAUUAAGACGCUAAGAAGGUCGCUUAAGGGUAGUGAUGUUACCUUUUGAG [theeternabot_sameState_KL_FMN_A_27] | 57.3 | 55 | 57.8 | 56.6 | 51.4
17 | AUUUUGGUUUAGAGUGAUGUUCCUUGUAUUCGAGGACCGGUACGGCCGCCACUCGGAUAGAAAAGAAAAGAAAUGUUUGAUUUUU [BDazzled - #8 SS Tryptophan A] | 339 | 219 | 458 | 260 | 298
18 | UACCUGCUGUCAGGAUAUGAGUGCAGUGAUGUUGCACUCAACGUAACCAUCUUGAAAUGCAAACACUCAGAAGGGACGCGCGAAG [Onaninso] | 151 | 99.8 | 122 | 91.8 | 102
19 | CGGCGGAGUGAUGUUCCACCUACUGCGGAUACCAGCUUUGCCAAAGGCCCUUGGCAGCCGCACGGCUCAGUGAUGUUGGGUCGCG [Same State Theophylline A G11] | 225 | 179 | 244 | 223 | 199
20 | UUUCUUUUAAUAACACUUUAUACAACUGAAGGAGCGACAAUAAAGUCAGGUAGGUCGCAGAAUUAAUGAGUGAUGUUCAUAUUUA [JR_ExcArginiA_Sub012] | 95.4 | 197 | 121 | 180 | 83
21 | AAAUAGAUCAGUCACCCAGUGAUGUUGGAAGGAGCGUGCGAAAGCACAGGUAGGUCGCCAAAACCUAAGUGGCUGAUCAAAAUAA [#SwitchBubble 4 #K4Early] | 838 | 445 | 819 | 523 | 587
22 | UAUACUAGACAAGAGAGAAUUCUCUCAAGAGAGGAUAUCCGAAUUCGGAGAAGGCUCUCUAAGUGAUGUUUGGAAUAGUCUAGAA [AK5 SS FMN A] | 660 | 448 | 737 | 500 | 500

Row | Sequence | apparent KD of K4 kissing-loop reporter (input ligand: FMN 200 uM) [nM] | apparent KD of K4 kissing-loop reporter (input ligand: arginine 13.2 mM) [nM] | apparent KD of K4 kissing-loop reporter (input ligand: none) [nM] | apparent KD of K4 kissing-loop reporter [1] [nM] | apparent KD of K4 kissing-loop reporter [2] [nM]
23 | UUUGGUUUCUCGGCCGCCACUCGUUGUCUAUCGGCUUCAGGGAUAUAGUGAUGUUAUGUAUAGAAGAGGACCGGGAGAAGGUUUU [ExTryptoB.Dw] | 467 | 602 | 603 | 864 | 398
24 | UGUGAUGAGUAGAGUGAUGUUUUGAAGGAUACCAGAGUGUUGUUAUUCCCUUGGCAGCUUGAGUGAUGUUUGAUGUUGUUGUAGU [zizmullin] | 303 | 213 | 248 | 246 | 196
25 | AAGUGAUGUUGUAGUGAUGUUGUGAUGUUGCAGGAUAUAUAGUGAUGUAGAAGGGUAUGUGCAGUUUUCUUAUUUGAGUGUUGAU [zwzamullin] | 75.9 | 33.2 | 62.6 | 49.5 | 61.3
26 | UGUCUUUUUUUGAUGUUUUUUGUAUAAUGGCAGGAUAUCGUAGAGGCGAGAAGGGCUUUUAUGCGUUAUGAGUGAUGUUUGUAGG [vevvmullin] | 321 | 240 | 302 | 295 | 220
27 | AAGGUGAUCCUCGAUACCAGCUCAAAAUGAGUGAUGUUCAUGAAAGCCUGGAAACAGGCGAGCCCUUGGCAGCGAGUUACAUCAA [KL-SSTheoB8] | 204 | 162 | 162 | 134 | 154
28 | UAUAGCGUCAGAAGGAGCGUGAGUAUAACAUGGCUGGAGUGAUGUUCCAGGAGUUAAUACUCACAGGUAGGUCGCUGACUCCUGG [Arg B SS t2] | 173 | 125 | 92.8 | 150 | 174
29 | GGUGUUGUUUGUGCUGUUUUCUUUGUUUCUCGAGGACCGGUACGGCCGCCACUCGAGUGAUGUUUGGGUAGCGAUGUUUGUUAGU [Bdazzled - #2 - Exc. Tryptophan A] | 463 | 280 | 355 | 383 | 411
30 | UGAUACCAGACGGCCGCCACUAGGACCGGGAGUGAUGUUCCAAAAUUAAAAUACUCGGCCGCCACUAGGACCGGGUCUGGUAUCU [TrypBX 25 #DoubleAptamer #SwitchBubble] | 225 | 137 | 162 | 205 | 75.4
31 | UGGAGUUGACGAAAAGUCAACUCCUGAGAUACCAGUGACGAAAGUCACCCUUGGCAGCUCACUGGCAGUGAUGUUGCGCGAUAAA [#23 K4 Theophylline A Same State] | 376 | 288 | 364 | 367 | 402
32 | AUGCUUCAGUAAGGAUAUGGAGGCAGAGUGAAGAUUGUCGUGUAACCGAGUUAAGUGAUGUUUGAUCCAGAAGGUACAUGCGUGU [theeternabot_exclusion_KL_FMN_B_15] | 926 | 561 | 885 | 379 | 605
33 | CGUGGUGCUCGCCAGCUGUGCGAGCGGUGGGAGGAUAUGUCGCGAGACAGAAGGCCCAGUGAUGUUGGGCAGGCUCGUAGAUCAA [Orbemaed] | 152 | 118 | 121 | 133 | 116
34 | UUGAUAUGAUAGUAUCCUGUUUGAUAAAGGCAGGAUAUCGAAAAUUCGAGAAGGGCCAUUAUAUGCAGUGAUGUUGCAAAUAAGU [Exclusion FMN A Gf 24] | 76.8 | 68.4 | 52.6 | 69 | 43.6
35 | GGAAAUUGAUCAACGCAGUGAUGUUGCGAUACCAGACACAAAGCCGUCCCUUGGCAGCGCGGGACAUUAAUGGAUCUAUGGGUUC [theeternabot_exclusion_KL_Theo_A_26] | 68.5 | 113 | 68.2 | 119 | 66.8
36 | UCUUUAGUAUAUGAUACCAGCAGUGAGAGACAGGAAGUAUAGUGAUGUUAUAUGAGAGAAUGCCCUUGGCAGCGUGUGCGGUGGG [SSTheophylB.T] | 132 | 103 | 93.4 | 119 | 101
37 | AUUUAUUCGUACUACUAGUGAUGUUAGUAACGAGGACCGGUACGGCCGCCACUCGAUUUGGCGAUUUUGUAUUUUUUAUUCUAUA [JR_SSTryptoA_Sub011] | 324 | 321 | 359 | 328 | 192
38 | GGGAAUUACGGAGGAUAUGCACUGAGGAGGAGAAUAUAGUGAUGUUAUAUAAGAGGAAGGAGAAGAGUAGAAGGCCGUGGAAAGG [SSFMNB.D] | 226 | 161 | 203 | 217 | 141
39 | UAUGUCAUUCUCGACGGAGUGAUGUUCCGACGAGGACCGGUACGGCCGCCACUCGGCAGAAUUGAGUCUGUGAUCCUAGAUCAAU [theeternabot_exclusion_KL_Trp_A_44] | 120 | 99.3 | 116 | 103 | 200
40 | AAGGGCUAGGCGGCCGCCACUGGUCGUGUACACAUACAAACCAGUGAUGUUGGUAUUGUAUGCGACAGGACCGGGCCUAGCCGAA [Exclusion - Tryptophan B (Freestyle 28)] | 280 | 229 | 323 | 258 | 481
41 | UGGAUAUAGUGAUGUUAUAUAGAGAUAGAUACCAGUUAAGAGAAUAGCCCUUGGCAGCUGAAAGAAGUAUCAUUAGAGAAGAAUG [ExTheophyl.Ab] | 212 | 147 | 207 | 170 | 137
42 | AUUAAUUUCAGAGGAUAUCGUAAUUUUAUUUAAUUUAUUCAUUUGUGCAGUGAUGUUGCUAAUAUUCGAGAAGGCUGAUUUAUAA [whbob_Ex_FMNB__2th223] | 142 | 159 | 70.8 | 171 | 65
43 | UGUCAUUGGUCGGCCGCCACUCCAUAAAGAGUGAUGUUCUGAAAGACGGAUCGAAAGAUCUGUCGGAGGACCGGGACCGAUGACU [FiskerMod 3 - Jieux - Same State - Tryptophan B] | 1310 | 665 | 1540 | 896 | 237
